# Source: the RNAGym collection of RNA variant scans (doi:10.1093/molbev/msab373)
# B1: Azoarcus group I ribozyme (parent)
# chain: GUGCCUUGCGCCGGGAAACCACGCAAGGGAUGGUGUCAAAUUCGGCGAAACCUAAGCGCCCGCCCGGGCGUAUGGCAACGCCGAGCCAAGCUUCGGCGCCUGCGCCGAUGAAGGUGUAGAGACUAGACGGCACCCACCUAAGGCAAACGCUAUGGUGAAGGCAUAGUCCAGGGAGUGGCGAAAGUCACACAAACCGG
# Variants of: B1
# Assay: reverse-splicing fitness (ratio to wild type); higher = more active; in vitro selection; Mg2+ level not given
# How it was run: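 An in vitro group I ribozyme library with randomized positions was T7-transcribed and gel-purified. In triplicate, 10 pmol RNA in EPPS pH 7.5 was reacted with 50 pmoles of a 30-nt RNA substrate for 1 h at 37 °C across several added MgCl2 levels (1–48 mM), then stopped with EDTA. Products were reverse transcribed from a substrate-complementary primer, PCR-amplified and sequenced (HiSeq 4000). Fitness is a variant's read proportion after selection over that before, normalised to wild type.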
row,Variant,reverse-splicing fitness
1,C82U A120G C169A U176C,0.0213
2,C82U A120G C169A U176G,0.00354
3,C82U A120G C169A U176A,0.0194
4,C82U A120G A145U C169U U176G,0.00326
5,C82U A120G A145U C169U U176C,0.0159
6,C82U A120G A145U C169U U176A,0.0216
7,C82U A120G A145U C150G C169A U176G,0.00411
8,C82U A120G A145U C150G C169A U176A,0.00927
9,C82U A120G A145U C150G C169A U176C,0.00949
10,C82U A120G C150A U176G,0.00583
11,C82U A120G C150A U176C,0.0166
12,C82U A120G C150A U176A,0.0116
13,C82U A120G C150U C169G,0.0167
14,C82U A120G C150U C169U,0.0137
15,C82U A120G C150U C169A,0.0144
16,C82U A120U A145G C150G C169G,0.00646
17,C82U A120U A145G C150G C169U,0.00613
18,C82U A120U A145G C150G C169A,0.00721
19,C82U A120G A145G C150U,0.0208
20,C82U A120G A145G C150G,0.00813
21,C82U A120U A145G C150G U176C,0.0113

row,Variant,reverse-splicing fitness
1,C82U A120U A145G C150G U176A,0.00711
2,C82U A120U A145G C150G U176G,0.00382
3,C82U A120G A145G C150G U176G,0.00539
4,C82U A120G A145G C150G U176A,0.00607
5,C82U A120G A145G C150G U176C,0.00995
6,C82U A120G A145G C169A U176A,0.0221
7,C82U A120G A145G C169A U176G,0.00333
8,C82U A120G A145G C169A U176C,0.0335
9,C82U A120G A145U C150A C169A U176C,0.00898
10,C82U A120G A145U C150A C169A U176G,0.00335
11,C82U A120G A145U C150A C169A U176A,0.0112
12,C82U A120U A145C C150G U176C,0.00864
13,C82U A120U A145C C150G U176G,0.00242
14,C82U A120U A145C C150G U176A,0.0055
15,C82U A120U A145G C150U C169G U176G,0.0018
16,C82U A120U A145G C150U C169G U176A,0.00433
17,C82U A120U A145G C150U C169G U176C,0.00361
18,C82U A120G C150G C169U U176C,0.0118
19,C82U A120G C150G C169U U176G,0.00521
20,C82U A120G C150G C169U U176A,0.0125
21,C82U A120U A145U C150A C169A U176C,0.00203

row,Variant,reverse-splicing fitness
1,C82U A120U A145U C150A C169A U176A,0.00221
2,C82U A120U A145U C150A C169A U176G,0.00164
3,C82U A120G A145G C150G C169A U176A,0.0129
4,C82U A120G A145G C150G C169A U176G,0.00685
5,C82U A120G A145G C150G C169A U176C,0.0121
6,C82U A120G U176G,0.00399
7,C82U A120G U176A,0.0132
8,C82U A120G U176C,0.0175
9,C82U A120G C150G U176G,0.00278
10,C82U A120G C150G U176A,0.00577
11,C82U A120G C150G U176C,0.00821
12,C82U A120G A145G C150A C169U U176A,0.0217
13,C82U A120G A145G C150A C169U U176G,0.0051
14,C82U A120G A145G C150A C169U U176C,0.0166
15,C82U A120U A145G C150A C169A U176A,0.00482
16,C82U A120U A145G C150A C169A U176G,0.00241
17,C82U A120U A145G C150A C169A U176C,0.00294
18,C82U A120U A145C U176C,0.0503
19,C82U A120U A145C U176G,0.011
20,C82U A120U A145C U176A,0.0354
21,C82U A120G A145G U176A,0.0128

row,Variant,reverse-splicing fitness
1,C82U A120G A145G U176G,0.00485
2,C82U A120G A145G U176C,0.019
3,C82U A120U A145U C150A C169G U176A,0.00218
4,C82U A120U A145U C150A C169G U176G,0.00147
5,C82U A120U A145U C150A C169G U176C,0.00274
6,C82U A120G A145U C150U,0.0176
7,C82U A120G A145U C150A,0.00772
8,C82U A120G A145U C150G,0.00697
9,C82U A120U A145C C150A U176G,0.00282
10,C82U A120U A145C C150A U176A,0.00377
11,C82U A120U A145C C150A U176C,0.00532
12,C82U A120G A145G C150U C169A U176C,0.0154
13,C82U A120G A145G C150U C169A U176A,0.0153
14,C82U A120G A145G C150U C169A U176G,0.00486
15,C82U A120G A145U C169A U176G,0.00294
16,C82U A120G A145U C169A U176A,0.00994
17,C82U A120G A145U C169A U176C,0.0105
18,C82U A120U A145G C150U U176G,0.0067
19,C82U A120U A145G C150U U176A,0.0299
20,C82U A120U A145G C150U U176C,0.0607
